Results published in patent US20200115416A1 (REGENTS OF THE UNIVERSITY OF MINNESOTA, published 2020).
Square brackets hold non-standard residues; d marks the D form. hPhe = N[C@@H](CCc1ccccc1)C(=O)O; Nle = CCCC[C@H](N)C(=O)O

B1: c[Pro-Arg-Phe-Phe-Thr-Ala-Phe-DPro] (peptide)
peptide: cyclo(PRFFTAF[dP])
SMILES: C[C@@H]1NC(=O)[C@H]([C@@H](C)O)NC(=O)[C@H](Cc2ccccc2)NC(=O)[C@H](Cc2ccccc2)NC(=O)[C@H](CCCNC(=N)N)NC(=O)[C@@H]2CCCN2C(=O)[C@H]2CCCN2C(=O)[C@H](Cc2ccccc2)NC1=O
B2: c[Pro-Arg-Phe-Phe-Asn-Ala-Ala-DPro] (peptide)
peptide: cyclo(PRFFNAA[dP])
SMILES: C[C@@H]1NC(=O)[C@H](CC(N)=O)NC(=O)[C@H](Cc2ccccc2)NC(=O)[C@H](Cc2ccccc2)NC(=O)[C@H](CCCNC(=N)N)NC(=O)[C@@H]2CCCN2C(=O)[C@H]2CCCN2C(=O)[C@H](C)NC1=O
B3: c[Pro-Arg-Phe-Phe-Asn-Asp-Phe-DPro] (peptide)
peptide: cyclo(PRFFNDF[dP])
SMILES: N=C(N)NCCC[C@@H]1NC(=O)[C@@H]2CCCN2C(=O)[C@H]2CCCN2C(=O)[C@H](Cc2ccccc2)NC(=O)[C@H](CC(=O)O)NC(=O)[C@H](CC(N)=O)NC(=O)[C@H](Cc2ccccc2)NC(=O)[C@H](Cc2ccccc2)NC1=O
B4: c[Pro-Arg-Phe-Phe-His-Ala-Phe-DPro] (peptide)
peptide: cyclo(PRFFHAF[dP])
SMILES: C[C@@H]1NC(=O)[C@H](Cc2c[nH]cn2)NC(=O)[C@H](Cc2ccccc2)NC(=O)[C@H](Cc2ccccc2)NC(=O)[C@H](CCCNC(=N)N)NC(=O)[C@@H]2CCCN2C(=O)[C@H]2CCCN2C(=O)[C@H](Cc2ccccc2)NC1=O
B5: c[Pro-Arg-Phe-Phe-Phe-Ala-Phe-DPro] (peptide)
peptide: cyclo(PRFFFAF[dP])
SMILES: C[C@@H]1NC(=O)[C@H](Cc2ccccc2)NC(=O)[C@H](Cc2ccccc2)NC(=O)[C@H](Cc2ccccc2)NC(=O)[C@H](CCCNC(=N)N)NC(=O)[C@@H]2CCCN2C(=O)[C@H]2CCCN2C(=O)[C@H](Cc2ccccc2)NC1=O
B6: c[Pro-Arg-Phe-Phe-Leu-Ala-Phe-DPro] (peptide)
peptide: cyclo(PRFFLAF[dP])
SMILES: CC(C)C[C@@H]1NC(=O)[C@H](Cc2ccccc2)NC(=O)[C@H](Cc2ccccc2)NC(=O)[C@H](CCCNC(=N)N)NC(=O)[C@@H]2CCCN2C(=O)[C@H]2CCCN2C(=O)[C@H](Cc2ccccc2)NC(=O)[C@H](C)NC1=O
B7: c[Pro-Arg-Phe-Phe-Asn-Glu-Phe-DPro] (peptide)
peptide: cyclo(PRFFNEF[dP])
SMILES: N=C(N)NCCC[C@@H]1NC(=O)[C@@H]2CCCN2C(=O)[C@H]2CCCN2C(=O)[C@H](Cc2ccccc2)NC(=O)[C@H](CCC(=O)O)NC(=O)[C@H](CC(N)=O)NC(=O)[C@H](Cc2ccccc2)NC(=O)[C@H](Cc2ccccc2)NC1=O
B8: c[Pro-Arg-Phe-Phe-Asn-Phe-Phe-DPro] (peptide)
peptide: cyclo(PRFFNFF[dP])
SMILES: N=C(N)NCCC[C@@H]1NC(=O)[C@@H]2CCCN2C(=O)[C@H]2CCCN2C(=O)[C@H](Cc2ccccc2)NC(=O)[C@H](Cc2ccccc2)NC(=O)[C@H](CC(N)=O)NC(=O)[C@H](Cc2ccccc2)NC(=O)[C@H](Cc2ccccc2)NC1=O
B9: c[Pro-Arg-Phe-Phe-Asn-Lys-Phe-DPro] (peptide)
peptide: cyclo(PRFFNKF[dP])
SMILES: N=C(N)NCCC[C@@H]1NC(=O)[C@@H]2CCCN2C(=O)[C@H]2CCCN2C(=O)[C@H](Cc2ccccc2)NC(=O)[C@H](CCCCN)NC(=O)[C@H](CC(N)=O)NC(=O)[C@H](Cc2ccccc2)NC(=O)[C@H](Cc2ccccc2)NC1=O
B10: c[Pro-Arg-Phe-Phe-Asn-His-Phe-DPro] (peptide)
peptide: cyclo(PRFFNHF[dP])
SMILES: N=C(N)NCCC[C@@H]1NC(=O)[C@@H]2CCCN2C(=O)[C@H]2CCCN2C(=O)[C@H](Cc2ccccc2)NC(=O)[C@H](Cc2c[nH]cn2)NC(=O)[C@H](CC(N)=O)NC(=O)[C@H](Cc2ccccc2)NC(=O)[C@H](Cc2ccccc2)NC1=O
B11: c[Pro-Arg-Phe-Phe-Asn-Leu-Phe-DPro] (peptide)
peptide: cyclo(PRFFNLF[dP])
SMILES: CC(C)C[C@@H]1NC(=O)[C@H](CC(N)=O)NC(=O)[C@H](Cc2ccccc2)NC(=O)[C@H](Cc2ccccc2)NC(=O)[C@H](CCCNC(=N)N)NC(=O)[C@@H]2CCCN2C(=O)[C@H]2CCCN2C(=O)[C@H](Cc2ccccc2)NC1=O
B12: c[Pro-Arg-Phe-Phe-Asn-Gly-Phe-DPro] (peptide)
peptide: cyclo(PRFFNGF[dP])
SMILES: N=C(N)NCCC[C@@H]1NC(=O)[C@@H]2CCCN2C(=O)[C@H]2CCCN2C(=O)[C@H](Cc2ccccc2)NC(=O)CNC(=O)[C@H](CC(N)=O)NC(=O)[C@H](Cc2ccccc2)NC(=O)[C@H](Cc2ccccc2)NC1=O
B13: c[Pro-Arg-Phe-Phe-Trp-Ala-Phe-DPro] (peptide)
peptide: cyclo(PRFFWAF[dP])
SMILES: C[C@@H]1NC(=O)[C@H](Cc2c[nH]c3ccccc23)NC(=O)[C@H](Cc2ccccc2)NC(=O)[C@H](Cc2ccccc2)NC(=O)[C@H](CCCNC(=N)N)NC(=O)[C@@H]2CCCN2C(=O)[C@H]2CCCN2C(=O)[C@H](Cc2ccccc2)NC1=O

Biological target: T1, mouse melanocortin-1 receptor (mouse, UniProt Q01727 1-315)
Assay: cell-based or functional assay

T1 sequence (Q01727 whole entry): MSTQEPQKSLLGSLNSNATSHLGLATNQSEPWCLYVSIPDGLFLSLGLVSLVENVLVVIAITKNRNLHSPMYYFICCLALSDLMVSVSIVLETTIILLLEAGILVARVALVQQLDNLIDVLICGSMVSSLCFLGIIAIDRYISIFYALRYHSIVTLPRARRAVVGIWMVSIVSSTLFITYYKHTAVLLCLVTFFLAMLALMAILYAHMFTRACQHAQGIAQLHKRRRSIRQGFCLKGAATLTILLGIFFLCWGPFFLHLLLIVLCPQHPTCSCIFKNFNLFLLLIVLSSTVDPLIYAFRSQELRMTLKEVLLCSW

agonist EC50 (cAMP AlphaScreen) [µM]	% maximal NDP-MSH response at 100 µM (cAMP AlphaScreen) [%]	Binder
> 100		B1
> 100		B2
	65	B3
> 100		B4
> 100		B5
	55	cyclo(PRFFVAF[dP]) [c[Pro-Arg-Phe-Phe-Val-Ala-Phe-DPro]]
> 100		B6
	60	B7
	70	B8
	60	B9
2.6		B10
> 100		cyclo(PRFF[Nle]AF[dP]) [c[Pro-Arg-Phe-Phe-Nle-Ala-Phe-DPro]]
	80	B11
> 100		B12
	80	B13

Biological target: mouse melanocortin-3 receptor (mouse, UniProt P33033 1-323)
Assay: cell-based or functional assay

Sequence of mouse melanocortin-3 receptor (P33033 whole entry): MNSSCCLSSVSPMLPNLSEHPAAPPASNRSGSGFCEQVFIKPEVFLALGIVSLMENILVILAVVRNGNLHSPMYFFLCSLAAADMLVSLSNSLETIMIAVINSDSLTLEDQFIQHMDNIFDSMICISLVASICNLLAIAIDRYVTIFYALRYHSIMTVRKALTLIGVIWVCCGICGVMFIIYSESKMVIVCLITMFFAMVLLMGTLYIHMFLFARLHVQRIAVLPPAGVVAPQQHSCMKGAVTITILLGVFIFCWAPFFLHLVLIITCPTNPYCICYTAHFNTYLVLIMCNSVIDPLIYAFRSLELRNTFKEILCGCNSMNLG

agonist EC50 (cAMP AlphaScreen) [µM]	antagonist pA2 (Schild, agonist NDP-MSH)	% maximal NDP-MSH response at 100 µM (cAMP AlphaScreen) [%]	Binder
> 100	6.4		B1
> 100	6.1		B2
> 100	< 5.5		B3
> 100	6.46		B4
> 100	< 5.5		B5
> 100	< 5.5		cyclo(PRFFVAF[dP]) [c[Pro-Arg-Phe-Phe-Val-Ala-Phe-DPro]]
> 100	5.7		B6
> 100	< 5.5		B7
	5.72	35	B8
	< 5.5	45	B9
> 100	< 5.5		B10
> 100	< 5.5		cyclo(PRFF[Nle]AF[dP]) [c[Pro-Arg-Phe-Phe-Nle-Ala-Phe-DPro]]
	< 5.5	25	B11
> 100	< 5.5		B12
	5.7	40	B13

Biological target: mouse melanocortin-4 receptor (mouse, UniProt P56450 1-332)
Assay: cell-based or functional assay

Sequence of mouse melanocortin-4 receptor (P56450 whole entry): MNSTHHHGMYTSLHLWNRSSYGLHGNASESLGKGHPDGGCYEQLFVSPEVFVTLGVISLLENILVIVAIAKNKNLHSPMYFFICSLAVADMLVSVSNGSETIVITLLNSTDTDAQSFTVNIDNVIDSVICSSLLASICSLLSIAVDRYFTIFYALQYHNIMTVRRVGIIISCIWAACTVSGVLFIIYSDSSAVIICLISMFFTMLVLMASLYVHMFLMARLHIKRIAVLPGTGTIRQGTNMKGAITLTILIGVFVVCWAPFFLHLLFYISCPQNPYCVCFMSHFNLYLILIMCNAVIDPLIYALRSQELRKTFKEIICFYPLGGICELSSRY

agonist EC50 (cAMP AlphaScreen) [µM]	antagonist pA2 (Schild, agonist NDP-MSH)	% maximal NDP-MSH response at 100 µM (cAMP AlphaScreen) [%]	Binder
> 100	7.76		B1
> 100	8.16		B2
> 100	< 5.5		B3
> 100	6.63		B5
> 100	5.9		cyclo(PRFFVAF[dP]) [c[Pro-Arg-Phe-Phe-Val-Ala-Phe-DPro]]
> 100	7.34		B6
> 100	< 5.5		B7
	5.71	35	B8
> 100	6.11		B9
> 100	6.07		B10
> 100	6.9		cyclo(PRFF[Nle]AF[dP]) [c[Pro-Arg-Phe-Phe-Nle-Ala-Phe-DPro]]
	6.18	25	B11
> 100	6.1		B12
	6.81	50	B13

Biological target: mouse melanocortin-5 receptor (mouse, UniProt P41149 1-325)
Assay: cell-based or functional assay

Sequence of mouse melanocortin-5 receptor (P41149 whole entry): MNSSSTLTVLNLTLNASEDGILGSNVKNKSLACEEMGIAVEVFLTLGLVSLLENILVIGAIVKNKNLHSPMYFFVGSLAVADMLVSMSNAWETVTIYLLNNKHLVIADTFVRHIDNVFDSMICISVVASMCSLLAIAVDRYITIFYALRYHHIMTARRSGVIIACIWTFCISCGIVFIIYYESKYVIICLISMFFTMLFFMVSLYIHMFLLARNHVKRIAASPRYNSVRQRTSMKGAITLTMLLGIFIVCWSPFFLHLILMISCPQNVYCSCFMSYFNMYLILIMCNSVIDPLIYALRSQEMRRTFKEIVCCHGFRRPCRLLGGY

inverse agonist apparent potency [µM]	inverse agonist, % decrease from basal cAMP [%]	inverse agonist, % change from basal cAMP at 100 µM [%]	agonist EC50 (cAMP AlphaScreen) [µM]	% maximal NDP-MSH response at 100 µM (cAMP AlphaScreen) [%]	Binder
0.05	-20				B1
		-25			B2
		-25			B3
0.01	-15				B4
			> 100		B5
0.51	-25				cyclo(PRFFVAF[dP]) [c[Pro-Arg-Phe-Phe-Val-Ala-Phe-DPro]]
0.11	-20				B6
			> 100		B7
				25	B8
				45	B9
			> 100		B10
			> 100		cyclo(PRFF[Nle]AF[dP]) [c[Pro-Arg-Phe-Phe-Nle-Ala-Phe-DPro]]
			> 100		B11
		-35			B12
0.15	-20				B13

Biological target: T1, mouse melanocortin-1 receptor
Assay: cell-based or functional assay
Remark: another data set of the same source

agonist EC50 (cAMP AlphaScreen) [µM]	% maximal NDP-MSH response at 100 µM (cAMP AlphaScreen) [%]	partial agonist efficacy, % of NDP-MSH [%]	Binder
0.7			cyclo(PR[dF]FNAF[dP]) [c[Pro-Arg-DPhe-Phe-Asn-Ala-Phe-DPro]]
	50		cyclo(P[dR]FFNAF[dP]) [c[Pro-DArg-Phe-Phe-Asn-Ala-Phe-DPro]]
0.5		90	cyclo(P[dR][dF]FNAF[dP]) [c[Pro-DArg-DPhe-Phe-Asn-Ala-Phe-DPro]]
	50		cyclo(PRF[dF]NAF[dP]) [c[Pro-Arg-Phe-DPhe-Asn-Ala-Phe-DPro]]
0.8		85	cyclo(PR[dF][dF]NAF[dP]) [c[Pro-Arg-DPhe-DPhe-Asn-Ala-Phe-DPro]]

Biological target: T1, mouse melanocortin-1 receptor
Assay: cell-based or functional assay
Remark: another data set of the same source

% receptor stimulation at 100 µM (cAMP AlphaScreen) [%]	Binder
35	cyclo(PRF[hPhe]NAF[dP]) [c[Pro-Arg-Phe-hPhe-Asn-Ala-Phe-DPro]]
